Literature values, collected in patent publication US20240269065A1, “Implantable Device for Release of Glucagon-Like Peptide-1 Receptor Agonist” (Celanese EVA Performance Polymers LLC, priority 2023, published 2024).

Target: GLP-1 receptor (Homo sapiens, UniProt P43220)
Details: in vitro studies; compared with native GLP-1 and exenatide

GLP-1 receptor, sequence (P43220 24-463, species assumed): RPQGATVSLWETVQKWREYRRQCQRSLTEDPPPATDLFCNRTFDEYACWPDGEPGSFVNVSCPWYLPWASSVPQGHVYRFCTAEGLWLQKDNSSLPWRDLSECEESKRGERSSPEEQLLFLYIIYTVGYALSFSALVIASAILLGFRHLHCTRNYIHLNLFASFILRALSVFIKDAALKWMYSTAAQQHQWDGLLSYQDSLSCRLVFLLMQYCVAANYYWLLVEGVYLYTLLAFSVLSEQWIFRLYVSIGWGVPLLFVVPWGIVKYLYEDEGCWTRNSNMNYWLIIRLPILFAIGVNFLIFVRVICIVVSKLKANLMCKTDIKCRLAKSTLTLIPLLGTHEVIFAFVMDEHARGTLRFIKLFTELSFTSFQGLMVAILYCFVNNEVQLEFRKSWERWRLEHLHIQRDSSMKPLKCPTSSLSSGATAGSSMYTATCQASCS

Substance: Lixisenatide
- affinity for the GLP-1 receptor relative to native GLP-1 and exenatide: four times greater affinity
